6 substances from IntAct's records for PubMed 16282588 can be followed below.

The target of one assay is tdg_mouse Tdg (UniProt P56581).
For assay [1], the target named is tdg_human TDG (UniProt Q13569).
Assay [2] addresses tdg_human TDG (UniProt Q13569). The source holds these as a separate data set.

Sequence of tdg_mouse Tdg (P56581 whole entry): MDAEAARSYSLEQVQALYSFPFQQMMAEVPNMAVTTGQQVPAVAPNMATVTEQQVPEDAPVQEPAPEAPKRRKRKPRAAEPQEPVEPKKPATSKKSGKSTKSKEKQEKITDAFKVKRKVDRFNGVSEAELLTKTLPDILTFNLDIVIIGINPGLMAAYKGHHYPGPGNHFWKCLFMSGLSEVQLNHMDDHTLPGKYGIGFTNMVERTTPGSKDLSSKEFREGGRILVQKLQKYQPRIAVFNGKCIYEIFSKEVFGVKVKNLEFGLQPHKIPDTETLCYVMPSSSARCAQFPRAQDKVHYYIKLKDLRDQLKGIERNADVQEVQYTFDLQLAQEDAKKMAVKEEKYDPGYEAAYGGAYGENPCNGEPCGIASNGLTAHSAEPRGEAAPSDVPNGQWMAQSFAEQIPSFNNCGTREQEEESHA
Sequence of tdg_human TDG (Q13569 whole entry): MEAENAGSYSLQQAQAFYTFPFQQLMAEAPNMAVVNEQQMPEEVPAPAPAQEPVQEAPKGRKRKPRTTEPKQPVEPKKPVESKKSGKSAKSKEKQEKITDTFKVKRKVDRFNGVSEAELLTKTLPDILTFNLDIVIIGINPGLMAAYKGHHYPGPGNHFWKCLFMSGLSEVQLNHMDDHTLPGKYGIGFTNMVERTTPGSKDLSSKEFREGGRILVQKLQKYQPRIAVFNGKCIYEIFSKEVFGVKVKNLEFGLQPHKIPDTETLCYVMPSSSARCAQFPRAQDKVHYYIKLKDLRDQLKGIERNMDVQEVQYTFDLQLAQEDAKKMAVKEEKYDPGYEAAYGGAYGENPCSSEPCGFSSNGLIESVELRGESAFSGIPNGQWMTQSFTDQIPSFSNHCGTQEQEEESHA
Sequence of Nuclear receptor coactivator 1 (Homo sapiens), Q15788-2 Y991F (Q15788 other isoform, or with tags, fused parts or gaps Y991F): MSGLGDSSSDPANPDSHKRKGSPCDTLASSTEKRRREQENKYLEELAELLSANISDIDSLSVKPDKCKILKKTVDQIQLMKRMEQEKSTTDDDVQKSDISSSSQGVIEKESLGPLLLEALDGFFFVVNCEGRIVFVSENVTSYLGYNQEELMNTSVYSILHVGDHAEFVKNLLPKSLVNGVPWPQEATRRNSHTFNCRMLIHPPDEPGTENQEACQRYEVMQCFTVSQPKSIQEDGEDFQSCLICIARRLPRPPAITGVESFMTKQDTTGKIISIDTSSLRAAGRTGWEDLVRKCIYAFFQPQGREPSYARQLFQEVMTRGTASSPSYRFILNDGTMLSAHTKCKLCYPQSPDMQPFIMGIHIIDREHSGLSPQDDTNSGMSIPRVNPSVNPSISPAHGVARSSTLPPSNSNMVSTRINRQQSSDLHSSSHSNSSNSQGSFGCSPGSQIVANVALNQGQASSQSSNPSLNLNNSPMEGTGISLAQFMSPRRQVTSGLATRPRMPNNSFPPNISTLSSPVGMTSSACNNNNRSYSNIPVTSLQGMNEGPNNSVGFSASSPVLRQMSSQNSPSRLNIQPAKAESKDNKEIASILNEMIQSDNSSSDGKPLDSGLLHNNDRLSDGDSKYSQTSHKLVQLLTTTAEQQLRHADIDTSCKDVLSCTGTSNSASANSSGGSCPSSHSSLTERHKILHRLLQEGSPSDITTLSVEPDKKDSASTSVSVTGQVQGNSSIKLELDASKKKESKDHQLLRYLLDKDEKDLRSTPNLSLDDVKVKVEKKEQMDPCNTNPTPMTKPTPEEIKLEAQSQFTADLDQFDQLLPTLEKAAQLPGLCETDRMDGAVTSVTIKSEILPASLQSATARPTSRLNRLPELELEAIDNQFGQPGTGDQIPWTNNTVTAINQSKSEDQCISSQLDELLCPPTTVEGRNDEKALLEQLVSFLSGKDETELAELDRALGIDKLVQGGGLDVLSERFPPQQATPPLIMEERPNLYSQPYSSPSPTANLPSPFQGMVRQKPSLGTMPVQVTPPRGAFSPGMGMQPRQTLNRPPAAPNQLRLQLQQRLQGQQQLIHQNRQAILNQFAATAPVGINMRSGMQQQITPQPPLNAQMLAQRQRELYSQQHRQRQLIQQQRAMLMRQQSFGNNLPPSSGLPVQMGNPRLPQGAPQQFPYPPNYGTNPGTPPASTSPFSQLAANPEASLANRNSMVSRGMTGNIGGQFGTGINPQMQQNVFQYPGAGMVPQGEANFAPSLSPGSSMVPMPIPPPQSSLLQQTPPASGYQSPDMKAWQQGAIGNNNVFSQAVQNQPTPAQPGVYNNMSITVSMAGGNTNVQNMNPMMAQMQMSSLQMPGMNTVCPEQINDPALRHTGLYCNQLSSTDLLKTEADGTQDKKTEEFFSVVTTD
Sequence of Nuclear receptor coactivator 1 (Homo sapiens), Q15788-2 Y1169F (Q15788 other isoform, or with tags, fused parts or gaps Y1169F): as the sequence (Q15788 other isoform, or with tags, fused parts or gaps Y991F) above
Sequence of Nuclear receptor coactivator 1 (Homo sapiens), Q15788-2 Y991F;Y1169F (Q15788 other isoform, or with tags, fused parts or gaps Y991F;Y1169F): as the sequence (Q15788 other isoform, or with tags, fused parts or gaps Y991F) above

For “Nuclear receptor coactivator 1 (Homo sapiens), Q15788 Y991F”, the “effect of a mutation on the interaction” value with tdg_mouse Tdg and with tdg_human TDG [1] was “decreasing interaction strength” each time.
With “Nuclear receptor coactivator 1 (Homo sapiens), Q15788 Y991F;Y1169F”, the “effect of a mutation on the interaction” value in the assay with tdg_mouse Tdg and with tdg_human TDG [1] was “decreasing interaction strength” throughout.
“Nuclear receptor coactivator 1 (Homo sapiens), Q15788 Y1169F”: the “effect of a mutation on the interaction” value with tdg_mouse Tdg and with tdg_human TDG [1] was “decreasing interaction strength” throughout.
Turning to “Nuclear receptor coactivator 1 (Homo sapiens), Q15788-2 Y991F”, the “effect of a mutation on the interaction” value in the assay with tdg_human TDG [2] is given as “decreasing interaction strength”.
Same read-out and setting: next, “Nuclear receptor coactivator 1 (Homo sapiens), Q15788-2 Y991F;Y1169F”: “disrupting interaction strength”.
Regarding “Nuclear receptor coactivator 1 (Homo sapiens), Q15788-2 Y1169F”, the “effect of a mutation on the interaction” value with tdg_human TDG [2] is recorded as “disrupting interaction strength”.
